In PMC11753358 (Oncogene, 2024):

Target: human EphA2-Fc, biotinylated (human, UniProt P29317 24-537, biotin (EZ-Link Sulfo NHS-LC-LC-Biotin, 1:1 molar ratio))
Assay: BLI

Chain of human EphA2-Fc, biotinylated (P29317 24-537): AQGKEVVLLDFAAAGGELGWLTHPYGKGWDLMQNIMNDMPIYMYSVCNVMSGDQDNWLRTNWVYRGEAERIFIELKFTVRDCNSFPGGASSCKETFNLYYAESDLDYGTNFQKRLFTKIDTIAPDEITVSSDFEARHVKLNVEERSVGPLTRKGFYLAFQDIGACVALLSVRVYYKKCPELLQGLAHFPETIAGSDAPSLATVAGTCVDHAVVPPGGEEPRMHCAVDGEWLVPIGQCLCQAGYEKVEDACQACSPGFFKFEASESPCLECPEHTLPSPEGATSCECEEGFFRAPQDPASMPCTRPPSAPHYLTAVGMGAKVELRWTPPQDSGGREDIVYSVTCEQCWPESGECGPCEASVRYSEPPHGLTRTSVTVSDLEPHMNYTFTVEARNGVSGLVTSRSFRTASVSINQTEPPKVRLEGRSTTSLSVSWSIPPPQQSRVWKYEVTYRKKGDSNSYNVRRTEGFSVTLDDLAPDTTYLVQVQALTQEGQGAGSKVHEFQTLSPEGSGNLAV

B1: human ephrin-A1-Fc (recombinant soluble ephrin-A1 fused to human IgG1Fc) (Fc fusion, UniProt P20827 19-182, looked up)
chain: DRHTVFWNSSNPKFRNEDYTIHVQLNDYVDIICPHYEDHSVADAAMEQYILYLVEHEEYQLCQPQSKDQVRWQCNRPSAKHGPEKLSEKFQRFTPFTLGKEFKEGHSYYYISKPIHQHEDRCLRLKVTVSGKITHSPQAHDNPQEKRLAADDPEVRVLHSIGHS
  binding result: binds
